Measured values as given in article PMC12170906.

Biological target: RNAP-SigA holoenzyme (Mycobacterium tuberculosis, UniProt P9WGZ1;P9WGY9;P9WGY7;P9WGI1 1-347;1-1178;1-1316;1-528)
Assay: EMSA; 100-200 nM RNAP, heparin
Settings: protein: recombinant; chain copies: 2;1;1;1; blunt

Chain of RNAP-SigA holoenzyme (P9WGZ1 whole entry, chain 1 of 4): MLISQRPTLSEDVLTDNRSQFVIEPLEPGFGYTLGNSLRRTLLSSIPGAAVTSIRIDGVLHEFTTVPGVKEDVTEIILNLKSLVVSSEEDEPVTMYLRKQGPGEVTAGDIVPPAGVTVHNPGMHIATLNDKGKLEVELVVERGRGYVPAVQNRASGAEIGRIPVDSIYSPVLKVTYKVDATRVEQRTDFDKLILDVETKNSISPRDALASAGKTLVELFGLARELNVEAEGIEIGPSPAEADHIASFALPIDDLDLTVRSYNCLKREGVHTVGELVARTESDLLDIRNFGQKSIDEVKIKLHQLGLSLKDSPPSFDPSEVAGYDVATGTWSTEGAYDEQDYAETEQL
Chain of RNAP-SigA holoenzyme (P9WGY9 whole entry, chain 2 of 4): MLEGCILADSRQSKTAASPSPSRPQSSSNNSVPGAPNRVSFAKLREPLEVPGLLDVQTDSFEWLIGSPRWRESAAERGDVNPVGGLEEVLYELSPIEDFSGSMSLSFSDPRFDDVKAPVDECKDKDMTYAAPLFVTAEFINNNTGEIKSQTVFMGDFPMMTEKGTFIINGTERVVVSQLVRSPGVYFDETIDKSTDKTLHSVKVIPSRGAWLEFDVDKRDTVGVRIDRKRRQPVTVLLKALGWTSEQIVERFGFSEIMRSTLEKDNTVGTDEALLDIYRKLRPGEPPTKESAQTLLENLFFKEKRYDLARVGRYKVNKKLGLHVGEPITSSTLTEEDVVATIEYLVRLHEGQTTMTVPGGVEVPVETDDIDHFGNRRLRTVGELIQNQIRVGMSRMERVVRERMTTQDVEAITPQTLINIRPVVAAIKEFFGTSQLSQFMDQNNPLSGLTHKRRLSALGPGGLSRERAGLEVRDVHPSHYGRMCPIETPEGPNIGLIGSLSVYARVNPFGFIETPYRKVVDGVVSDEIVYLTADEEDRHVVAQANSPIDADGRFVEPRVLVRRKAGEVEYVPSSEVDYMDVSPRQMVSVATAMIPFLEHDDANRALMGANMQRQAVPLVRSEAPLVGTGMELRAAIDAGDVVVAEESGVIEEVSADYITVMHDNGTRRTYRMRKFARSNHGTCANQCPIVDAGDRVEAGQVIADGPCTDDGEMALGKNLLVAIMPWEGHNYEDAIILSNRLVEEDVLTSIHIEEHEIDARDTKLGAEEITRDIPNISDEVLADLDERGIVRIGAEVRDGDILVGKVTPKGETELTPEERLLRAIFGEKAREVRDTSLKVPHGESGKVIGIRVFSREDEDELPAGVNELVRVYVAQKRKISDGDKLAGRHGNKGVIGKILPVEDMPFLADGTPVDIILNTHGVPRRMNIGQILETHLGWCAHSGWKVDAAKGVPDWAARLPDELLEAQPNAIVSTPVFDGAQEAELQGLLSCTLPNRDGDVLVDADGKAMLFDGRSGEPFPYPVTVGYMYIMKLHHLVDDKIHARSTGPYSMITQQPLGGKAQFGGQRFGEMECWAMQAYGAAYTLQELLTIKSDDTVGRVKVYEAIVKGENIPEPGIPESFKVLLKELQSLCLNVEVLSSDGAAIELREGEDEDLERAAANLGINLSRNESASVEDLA
Chain of RNAP-SigA holoenzyme (P9WGY7 whole entry, chain 3 of 4): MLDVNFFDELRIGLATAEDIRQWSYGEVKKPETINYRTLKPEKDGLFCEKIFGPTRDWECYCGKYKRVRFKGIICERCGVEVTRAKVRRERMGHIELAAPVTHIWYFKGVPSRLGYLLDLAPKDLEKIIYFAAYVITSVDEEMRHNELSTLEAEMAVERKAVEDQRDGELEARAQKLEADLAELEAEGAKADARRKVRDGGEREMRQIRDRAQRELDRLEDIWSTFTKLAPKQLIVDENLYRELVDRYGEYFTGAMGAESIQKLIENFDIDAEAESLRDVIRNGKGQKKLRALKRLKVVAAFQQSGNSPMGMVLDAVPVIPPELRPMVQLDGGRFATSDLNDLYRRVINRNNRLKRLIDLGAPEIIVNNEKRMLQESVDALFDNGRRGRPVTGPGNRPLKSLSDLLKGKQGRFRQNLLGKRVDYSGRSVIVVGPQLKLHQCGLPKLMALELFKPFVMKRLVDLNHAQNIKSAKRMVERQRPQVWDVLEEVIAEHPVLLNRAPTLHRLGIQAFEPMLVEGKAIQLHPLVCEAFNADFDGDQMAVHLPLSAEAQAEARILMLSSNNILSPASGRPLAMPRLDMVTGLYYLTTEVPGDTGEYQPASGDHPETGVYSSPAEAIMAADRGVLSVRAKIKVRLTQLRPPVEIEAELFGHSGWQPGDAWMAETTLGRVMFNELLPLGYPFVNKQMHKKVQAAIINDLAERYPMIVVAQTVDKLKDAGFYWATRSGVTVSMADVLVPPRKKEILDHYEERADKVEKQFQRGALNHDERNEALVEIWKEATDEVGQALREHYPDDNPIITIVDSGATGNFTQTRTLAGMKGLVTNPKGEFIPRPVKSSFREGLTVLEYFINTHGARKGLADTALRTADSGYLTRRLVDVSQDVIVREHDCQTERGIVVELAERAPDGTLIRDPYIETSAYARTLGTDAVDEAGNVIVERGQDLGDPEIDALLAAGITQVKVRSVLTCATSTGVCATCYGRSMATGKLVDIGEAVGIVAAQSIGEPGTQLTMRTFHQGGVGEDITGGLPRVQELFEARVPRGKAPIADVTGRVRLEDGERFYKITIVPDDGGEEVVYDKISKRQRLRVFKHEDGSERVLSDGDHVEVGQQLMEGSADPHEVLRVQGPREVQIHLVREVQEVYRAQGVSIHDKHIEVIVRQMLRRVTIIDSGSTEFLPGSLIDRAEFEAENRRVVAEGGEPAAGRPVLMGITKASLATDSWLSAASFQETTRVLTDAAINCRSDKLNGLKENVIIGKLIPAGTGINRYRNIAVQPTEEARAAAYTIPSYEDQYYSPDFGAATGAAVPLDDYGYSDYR
Chain of RNAP-SigA holoenzyme (P9WGI1 whole entry, chain 4 of 4): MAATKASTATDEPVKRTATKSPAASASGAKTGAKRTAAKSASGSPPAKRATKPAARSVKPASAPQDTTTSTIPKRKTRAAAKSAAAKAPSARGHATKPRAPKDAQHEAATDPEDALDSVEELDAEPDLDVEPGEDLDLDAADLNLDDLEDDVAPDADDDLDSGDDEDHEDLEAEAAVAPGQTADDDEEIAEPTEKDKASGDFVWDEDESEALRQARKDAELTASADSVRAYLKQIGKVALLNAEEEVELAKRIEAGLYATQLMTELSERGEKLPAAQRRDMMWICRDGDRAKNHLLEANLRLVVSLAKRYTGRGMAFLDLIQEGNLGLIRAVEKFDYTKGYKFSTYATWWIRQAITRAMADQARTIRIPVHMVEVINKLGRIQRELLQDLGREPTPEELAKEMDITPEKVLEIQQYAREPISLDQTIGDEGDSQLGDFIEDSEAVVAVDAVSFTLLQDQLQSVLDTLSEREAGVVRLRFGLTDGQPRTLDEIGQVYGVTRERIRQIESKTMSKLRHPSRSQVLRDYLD

B1: rrnAP3 promoter (dsDNA)
DNA 1: CTATGGATGACCGAACCTGGTCTTGACTCCATTGCCGGATTTGTATTAGACTGGCAGGGTCGCCCCGAAGCGGGCGGAAACAAGCAAGCGTGTTGTTTGAGAACTC
DNA 2: GAGTTCTCAAACAACACGCTTGCTTGTTTCCGCCCGCTTCGGGGCGACCCTGCCAGTCTAATACAAATCCGGCAATGGAGTCAAGACCAGGTTCGGTCATCCATAG
binding result: binds
